In patent EP4541814A1 (Cytiva BioProcess R&D AB, dated 2025):

B1: vh346 (SEQ ID NO:114) (VHH)
VHH: QVQLQQSGGGSVQAGGSLRLSCTISGRTLSDYTMGWFRQRPGKERELVAAISWSGAYTKYADSVKGRFTISRDNAKNTVYLQMNSLKPEDTAIYYCAAGPTGLLSKKATPADYDYWGQGTQVTVSS
B2: vh344 (SEQ ID NO:98) (VHH)
VHH: QVQLQQSGGGSVQAGGSLRLSCAISGRTLSDYTMGWFRQRPGKEREFVAAISWSGAYTKYADSVKGRFTISRDNAKNTVYLQMNSLKPEDTAIYYCAAGPTGLLSKKATPADYDYWGQGTQVTVSS
B3: vh118 (SEQ ID NO:80), Example 3 construct (VHH)
VHH: QVQLQQSGGGSVQAGGSLRLSCTISGRTLSDYTMGWFRQRPGKEREFVAAISWSGAYTKYADSVKGRFTISRDNAKNTVYLQMNSLKPEDTAVYYCAAGPTGLLSKKATPADYDYWGQGTQVTVSS
B4: vh345 (SEQ ID NO:104) (VHH)
VHH: QVQLQQSGGGSVQAGGSLRLSCTISGRTLSDYTMGWFRQAPGKEREFVAAISWSGAYTKYADSVKGRFTISRDNAKNTVYLQMNSLKPEDTAIYYCAAGPTGLLSKKATPADYDYWGQGTQVTVSS
B5: vh428 (SEQ ID NO:146) fused to SEQ ID NO:160, Example 5 (VHH)
chain (part 1 of 2): QVQLQQSGGGSVQAGGSLRLSCTISGRTLSDFTMAWFRQRPGKEREFVAAISWSGAYTYYADSVKGRFTISRDNAKNTVYLQMNSLKPEDTAVYYCAAGPTGLLSRKTTPADYQYWGQGTQVTVSS
chain (part 2 of 2): not shown
B6: vh359 (SEQ ID NO:145) fused to SEQ ID NO:160, Example 5 (VHH)
chain (part 1 of 2): QVQLVESGGGSVQAGGSLSLSCTISGRTLSDFTMAWFRQRPGKEREFVAAISWSGAYTYYTDSVKGRFTISRDNAKNTVYLQMQSLKPEDTAVYYCAAGPTGLLSRKTTPADYQYWGQGTQVTVSS
chain (part 2 of 2): not shown
B7: vh374 (SEQ ID NO:144) fused to SEQ ID NO:160, Example 5 (VHH)
chain (part 1 of 2): QVQLQQSGGGSVQAGGSLRLSCTSSGRTLSDFTMAWFRQRPGRAREFVAAISWSGAYTYYTDSVKGRFTISRDNAKNTVFLQMQSLKPEDTAIYYCAAGPTGLLSRKTTPADYQYWGQGTQVTVSS
chain (part 2 of 2): not shown
B8: vh118 (SEQ ID NO:80) fused to SEQ ID NO:160, Example 5 (VHH)
chain (part 1 of 2): QVQLQQSGGGSVQAGGSLRLSCTISGRTLSDYTMGWFRQRPGKEREFVAAISWSGAYTKYADSVKGRFTISRDNAKNTVYLQMNSLKPEDTAVYYCAAGPTGLLSKKATPADYDYWGQGTQVTVSS
chain (part 2 of 2): not shown
B9: Candidate 4A-1: vh342 fusion protein (SEQ ID NO:163) (VHH)
VHH: QVQLQESGGGLVQPGGSLRLSCAASGRTLSDYTMGWFRQAPGKQREFVAAISWSGAYTKYTDSVKGRFTISRDNAKTTVYLQMNSLKPEDTAVYYCAAGPTGLLSKKATPADYDYWGQGTQVTVSS
B10: Candidate 4A-2: vh343 fusion protein (SEQ ID NO:164) (VHH)
VHH: EVQLVESGGGLVQAGGSLRLSCAASGRTLSDYTMGWFRQAPGKEREFVVAISWSGAYTKYADSVKGRFTISRDNAKNTMYLQMNSLKPEDTAVYYCAAGPTGLLSKKATPADYDYWGQGTQVTVSS
B11: vh264 (SEQ ID NO:110) (VHH)
VHH: QVQLQQSGGGSVQAGGSLRLSCTISGRTLSDYTMGWFRQRPGKDREFVAAISWSGAYTKYADSVKGRFTISRDNAKNTVYLQMNSLKPEDTAVYYCAAGPTGLLSKKATPADYDYWGQGTQVTVSS
B12: vh265 (SEQ ID NO:111) (VHH)
VHH: QVQLQQSGGGSVQAGGSLRLSCTISGRTLSDYTMGWFRQRPGKGREFVAAISWSGAYTKYADSVKGRFTISRDNAKNTVYLQMNSLKPEDTAVYYCAAGPTGLLSKKATPADYDYWGQGTQVTVSS
B13: vh262 (SEQ ID NO:108) (VHH)
VHH: QVQLQQSGGGSVQAGGSLRLSCTISGRTLSDYTMGWFRQRPGKQREFVAAISWSGAYTKYADSVKGRFTISRDNAKNTVYLQMNSLKPEDTAVYYCAAGPTGLLSKKATPADYDYWGQGTQVTVSS
B14: vh259 (SEQ ID NO:105) (VHH)
VHH: QVQLQQSGGGSVQAGGSLRLSCTISGRTLSDYTMGWFRQRPGGEREFVAAISWSGAYTKYADSVKGRFTISRDNAKNTVYLQMNSLKPEDTAVYYCAAGPTGLLSKKATPADYDYWGQGTQVTVSS
B15: vh325 (SEQ ID NO:113) (VHH)
VHH: QVQLQQSGGGSVQAGGSLRLSCTISGRTLSDYTMGWFRQRPGKEIEFVAAISWSGAYTKYADSVKGRFTISRDNAKNTVYLQMNSLKPEDTAVYYCAAGPTGLLSKKATPADYDYWGQGTQVTVSS
B16: vh260 (SEQ ID NO:106) (VHH)
VHH: QVQLQQSGGGSVQAGGSLRLSCTISGRTLSDYTMGWFRQRPGQEREFVAAISWSGAYTKYADSVKGRFTISRDNAKNTVYLQMNSLKPEDTAVYYCAAGPTGLLSKKATPADYDYWGQGTQVTVSS
B17: vh266 (SEQ ID NO:112) (VHH)
VHH: QVQLQQSGGGSVQAGGSLRLSCTISGRTLSDYTMGWFRQRPGKELEFVAAISWSGAYTKYADSVKGRFTISRDNAKNTVYLQMNSLKPEDTAVYYCAAGPTGLLSKKATPADYDYWGQGTQVTVSS
B18: vh261 (SEQ ID NO:107) (VHH)
VHH: QVQLQQSGGGSVQAGGSLRLSCTISGRTLSDYTMGWFRQRPGREREFVAAISWSGAYTKYADSVKGRFTISRDNAKNTVYLQMNSLKPEDTAVYYCAAGPTGLLSKKATPADYDYWGQGTQVTVSS
B19: vh263 (SEQ ID NO:109) (VHH)
VHH: QVQLQQSGGGSVQAGGSLRLSCTISGRTLSDYTMGWFRQRPGKAREFVAAISWSGAYTKYADSVKGRFTISRDNAKNTVYLQMNSLKPEDTAVYYCAAGPTGLLSKKATPADYDYWGQGTQVTVSS
B20: vh254 (SEQ ID NO:97) (VHH)
VHH: QVQLQQSGGGSVQAGGSLRLSCSISGRTLSDYTMGWFRQRPGKEREFVAAISWSGAYTKYADSVKGRFTISRDNAKNTVYLQMNSLKPEDTAVYYCAAGPTGLLSKKATPADYDYWGQGTQVTVSS
B21: vh247 (SEQ ID NO:89) (VHH)
VHH: QVQLVQSGGGSVQAGGSLRLSCTISGRTLSDYTMGWFRQRPGKEREFVAAISWSGAYTKYADSVKGRFTISRDNAKNTVYLQMNSLKPEDTAVYYCAAGPTGLLSKKATPADYDYWGQGTQVTVSS
B22: vh255 (SEQ ID NO:99) (VHH)
VHH: QVQLQQSGGGSVQAGGSLRLSCTSSGRTLSDYTMGWFRQRPGKEREFVAAISWSGAYTKYADSVKGRFTISRDNAKNTVYLQMNSLKPEDTAVYYCAAGPTGLLSKKATPADYDYWGQGTQVTVSS
B23: vh249 (SEQ ID NO:91) (VHH)
VHH: QVQLQESGGGSVQAGGSLRLSCTISGRTLSDYTMGWFRQRPGKEREFVAAISWSGAYTKYADSVKGRFTISRDNAKNTVYLQMNSLKPEDTAVYYCAAGPTGLLSKKATPADYDYWGQGTQVTVSS
B24: vh252 (SEQ ID NO:94) (VHH)
VHH: QVQLQQSGGGSVQAGGSLKLSCTISGRTLSDYTMGWFRQRPGKEREFVAAISWSGAYTKYADSVKGRFTISRDNAKNTVYLQMNSLKPEDTAVYYCAAGPTGLLSKKATPADYDYWGQGTQVTVSS
B25: vh250 (SEQ ID NO:92) (VHH)
VHH: QVQLQQSGGGSVQSGGSLRLSCTISGRTLSDYTMGWFRQRPGKEREFVAAISWSGAYTKYADSVKGRFTISRDNAKNTVYLQMNSLKPEDTAVYYCAAGPTGLLSKKATPADYDYWGQGTQVTVSS
B26: vh251 (SEQ ID NO:93) (VHH)
VHH: QVQLQQSGGGSVQTGGSLRLSCTISGRTLSDYTMGWFRQRPGKEREFVAAISWSGAYTKYADSVKGRFTISRDNAKNTVYLQMNSLKPEDTAVYYCAAGPTGLLSKKATPADYDYWGQGTQVTVSS
B27: vh332 (SEQ ID NO:96) (VHH)
VHH: QVQLQQSGGGSVQAGGSLRLSCVISGRTLSDYTMGWFRQRPGKEREFVAAISWSGAYTKYADSVKGRFTISRDNAKNTVYLQMNSLKPEDTAVYYCAAGPTGLLSKKATPADYDYWGQGTQVTVSS
B28: vh248 (SEQ ID NO:90) (VHH)
VHH: QVQLEQSGGGSVQAGGSLRLSCTISGRTLSDYTMGWFRQRPGKEREFVAAISWSGAYTKYADSVKGRFTISRDNAKNTVYLQMNSLKPEDTAVYYCAAGPTGLLSKKATPADYDYWGQGTQVTVSS
B29: vh256 (SEQ ID NO:100) (VHH)
VHH: QVQLQQSGGGSVQAGGSLRLSCTVSGRTLSDYTMGWFRQRPGKEREFVAAISWSGAYTKYADSVKGRFTISRDNAKNTVYLQMNSLKPEDTAVYYCAAGPTGLLSKKATPADYDYWGQGTQVTVSS
B30: vh253 (SEQ ID NO:95) (VHH)
VHH: QVQLQQSGGGSVQAGGSLSLSCTISGRTLSDYTMGWFRQRPGKEREFVAAISWSGAYTKYADSVKGRFTISRDNAKNTVYLQMNSLKPEDTAVYYCAAGPTGLLSKKATPADYDYWGQGTQVTVSS

biological target: T1, AAV9 viral particles (adeno-associated virus 9); experiment: SPR (Biacore), polypeptide amine-coupled to CM5, AAV9 analyte; response normalized to SEQ ID NO:80

Binder | Normalized AAV9 binding capacity (%)
B1 | 100
B2 | 100
B3 | 100
B4 | 101

biological target: T1, AAV9 viral particles; experiment: SPR (Biacore 8K+), fusion protein amine-coupled to CM5, AAV9 2E12 vp/ml; response normalized to vh118

Binder | Normalized AAV9 binding capacity (%)
B5 | 108
B6 | 86.4
B7 | 102
B8 | 100

biological target: T1, AAV9 viral particles; experiment: SPR (Biacore 8K+), fusion protein amine-coupled to CM5, AAV9 2E12 vp/ml, report point late binding

Binder | Binding capacity AAV9 (2E12 vp/ml) (RU)
B9 | 9920
B10 | 12400

biological target: T1, AAV9 viral particles; experiment: SPR (Biacore), polypeptide amine-coupled to CM5, AAV9 analyte; response normalized to SEQ ID NO:80; remark: another data set of the same source

Binder | Normalized AAV9 binding capacity (%)
B11 | 92
B1 | 100
B12 | 101
B13 | 104
B14 | 72
B15 | 97
B3 | 100
B16 | 77
B4 | 101
B17 | 115
B18 | 105
B19 | 108

biological target: T1, AAV9 viral particles; experiment: as above; remark: another data set of the same source

Binder | Normalized AAV9 binding capacity (%)
B20 | 73
B21 | 106
B22 | 103
B23 | 86
B24 | 92
B25 | 96
B26 | 99
B2 | 100
B3 | 100
B27 | 98
B28 | 105
B29 | 102
B30 | 86
